Assay results from publication PMC7658359.

Key:
[1] = molecular target: Arabidopsis histone H2A (HTA1)-H2B (HTB1) dimer, Q9LD28;Q9LQQ4; test: ITC
[2] = molecular target: Arabidopsis histone variant H2A.Z (HTA9)-H2B (HTB1) dimer (Arabidopsis thaliana) (UniProt Q9C944); test: ITC; MicroCal iTC200; OsChz1-C or its mutants injected into histone H2A-H2B or H2A.Z-H2B solutions; 19 injections of 2 μl
[3] = molecular target: Arabidopsis histone H2A (HTA1)-H2B (HTB1) dimer (Arabidopsis thaliana) (UniProt Q9LD28); test: as above
Arabidopsis histone H2A (HTA1)-H2B (HTB1) dimer (Arabidopsis thaliana), sequence (Q9LD28 whole entry, chain 1 of 2): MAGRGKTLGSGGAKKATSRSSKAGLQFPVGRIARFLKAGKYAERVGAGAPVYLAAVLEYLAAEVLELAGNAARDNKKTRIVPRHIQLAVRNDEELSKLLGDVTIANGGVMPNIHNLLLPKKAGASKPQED
Arabidopsis histone H2A (HTA1)-H2B (HTB1) dimer (Arabidopsis thaliana), sequence (Q9LQQ4 whole entry, chain 2 of 2, further chain): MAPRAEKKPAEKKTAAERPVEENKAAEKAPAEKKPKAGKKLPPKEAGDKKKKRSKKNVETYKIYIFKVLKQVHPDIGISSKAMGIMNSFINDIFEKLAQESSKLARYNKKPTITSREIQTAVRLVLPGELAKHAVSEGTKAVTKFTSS

Substance	Kd [1]	Kd [2]	Kd [3]
OsChz1-C (OsChz1 338–471), wild type 1M	150 nM	–	–
OsChz1-C (OsChz1 338–471), wild type 2M	259 nM	–	–
OsChz1-C (OsChz1 338–471), wild type 3M	146 nM	–	–
OsChz1-C (OsChz1 338–471), wild type (domain or fragment)	–	64.1 nM	9.8 nM
